Tested on: SnaBI restriction endonuclease (R.SnaBI) (Sphaerotilus natans)
Assay: cleavage_in_vitro
Details: crude extract, 37 C, 15 min and 1 h; about 8x10^6

T7 phage DNA (SnaBI substrate)
activity (units/g wet cells): 8e+06
